# Test results published in patent US20250002610A1 (Genmab, published 2025).
# T1: human DR4 (Death Receptor 4), cell surface expressed on human tumor cell lines (human, UniProt O00220 24-468)
# T1 construct: also called TNFRSF10A; TRAIL-R1
# T1 sequence: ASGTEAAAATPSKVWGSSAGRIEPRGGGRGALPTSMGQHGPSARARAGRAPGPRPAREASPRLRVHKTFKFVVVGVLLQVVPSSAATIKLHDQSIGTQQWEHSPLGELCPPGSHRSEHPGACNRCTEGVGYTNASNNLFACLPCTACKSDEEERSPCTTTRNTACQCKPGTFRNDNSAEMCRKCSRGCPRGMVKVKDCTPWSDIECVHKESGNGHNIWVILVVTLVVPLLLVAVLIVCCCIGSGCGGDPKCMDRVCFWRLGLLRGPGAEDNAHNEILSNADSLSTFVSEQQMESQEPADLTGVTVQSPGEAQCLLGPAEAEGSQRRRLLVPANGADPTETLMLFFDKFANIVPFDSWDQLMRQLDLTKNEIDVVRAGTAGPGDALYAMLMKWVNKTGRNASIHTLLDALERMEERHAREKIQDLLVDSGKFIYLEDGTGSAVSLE
# T2: human FAPα (Fibroblast activation protein alpha), cell surface expressed (human, UniProt Q12884 1-760)
# T2 construct: Endogenous on human lung fibroblasts and CAFs
# T2 sequence: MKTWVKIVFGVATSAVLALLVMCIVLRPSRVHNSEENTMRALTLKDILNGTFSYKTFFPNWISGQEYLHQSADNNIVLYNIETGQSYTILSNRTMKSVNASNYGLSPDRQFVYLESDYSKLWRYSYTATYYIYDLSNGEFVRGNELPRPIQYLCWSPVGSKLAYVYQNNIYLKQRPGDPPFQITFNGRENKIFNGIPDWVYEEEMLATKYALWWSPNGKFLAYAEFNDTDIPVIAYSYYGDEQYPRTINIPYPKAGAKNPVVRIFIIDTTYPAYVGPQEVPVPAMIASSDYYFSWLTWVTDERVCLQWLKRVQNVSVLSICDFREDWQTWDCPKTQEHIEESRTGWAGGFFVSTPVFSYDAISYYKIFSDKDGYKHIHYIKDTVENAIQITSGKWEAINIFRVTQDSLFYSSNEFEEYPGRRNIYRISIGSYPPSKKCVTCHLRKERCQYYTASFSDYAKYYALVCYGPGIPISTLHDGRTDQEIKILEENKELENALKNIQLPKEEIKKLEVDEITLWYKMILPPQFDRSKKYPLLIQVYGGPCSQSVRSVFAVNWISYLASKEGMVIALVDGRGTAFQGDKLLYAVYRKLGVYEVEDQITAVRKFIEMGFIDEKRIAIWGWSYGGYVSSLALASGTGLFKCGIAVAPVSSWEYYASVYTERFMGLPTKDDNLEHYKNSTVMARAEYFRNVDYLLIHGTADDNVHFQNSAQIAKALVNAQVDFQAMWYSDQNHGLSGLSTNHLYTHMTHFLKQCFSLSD
# B1: IgG1-DR4-FERR (antibody, V domains shown)
# VH: QVQLQESGPGLVKPSGTLSLTCAVSGGSISSYSWWSWIRQPPGKGLEWIGELYHSGSTNYNPSLKSRVTISVDKSKNQFSLKLRSVTAADTAVYYCVRGVATIDYWGQGTLVTVSS
# VL: QSALTQPPSASGSPGQSVTISCTGTSSDVGGYNFVSWYQQDPGKAPKLLIYEVTKRPSGVPDRFSGSKSGNTASLTVSGLQAEDEADYYCSSYAGSNNVMFGGGTKLTVLG
# notes: Bivalent monoclonal IgG1 lambda
# B2: BisG1-FAPα-FERL/b12-FERR (bispecific antibody, human IgG1, kappa)
# heavy 1: EVQLLESGGGLVQPGGSPRLSCEASGFTFSSYALSWVRQAPGKGLEWVSAISGSGGGRYYADSVKGRFTISRDNSKNTLFLQMNSLRAEDTAVYYCAKEGYSSSGTYWDHWGQGTLVTVSSASTKGPSVFPLAPSSKSTSGGTAALGCLVKDYFPEPVTVSWNSGALTSGVHTFPAVLQSSGLYSLSSVVTVPSSSLGTQTYICNVNHKPSNTKVDKRVEPKSCDKTHTCPPCPAPEFERGPSVFLFPPKPKDTLMISRTPEVTCVVVDVSHEDPEVKFNWYVDGVEVHNAKTKPREEQYNSTYRVVSVLTVLHQDWLNGKEYKCKVSNKALPAPIEKTISKAKGQPREPQVYTLPPSREEMTKNQVSLTCLVKGFYPSDIAVEWESNGQPENNYKTTPPVLDSDGSFLLYSKLTVDKSRWQQGNVFSCSVMHEALHNHYTQKSLSLSPG
# light 1: AIQMTQSPSSVSASVGDRVTITCRASQGVSSWLAWYQQKPGRAPKLLIYVASTLQSGVPSRFSGSGSGTDFTLTINSLQPEDFATYYCQQANSFPPTFGQGTRLEMKRTVAAPSVFIFPPSDEQLKSGTASVVCLLNNFYPREAKVQWKVDNALQSGNSQESVTEQDSKDSTYSLSSTLTLSKADYEKHKVYACEVTHQGLSSPVTKSFNRGEC
# heavy 2: QVQLVQSGAEVKKPGASVKVSCQASGYRFSNFVIHWVRQAPGQRFEWMGWINPYNGNKEFSAKFQDRVTFTADTSANTAYMELRSLRSADTAVYYCARVGPYSWDDSPQDNYYMDVWGKGTTVIVSSASTKGPSVFPLAPSSKSTSGGTAALGCLVKDYFPEPVTVSWNSGALTSGVHTFPAVLQSSGLYSLSSVVTVPSSSLGTQTYICNVNHKPSNTKVDKRVEPKSCDKTHTCPPCPAPEFERGPSVFLFPPKPKDTLMISRTPEVTCVVVDVSHEDPEVKFNWYVDGVEVHNAKTKPREEQYNSTYRVVSVLTVLHQDWLNGKEYKCKVSNKALPAPIEKTISKAKGQPREPQVYTLPPSREEMTKNQVSLTCLVKGFYPSDIAVEWESNGQPENNYKTTPPVLDSDGSFFLYSRLTVDKSRWQQGNVFSCSVMHEALHNHYTQKSLSLSPG
# light 2: EIVLTQSPGTLSLSPGERATFSCRSSHSIRSRRVAWYQHKPGQAPRLVIHGVSNRASGISDRFSGSGSGTDFTLTITRVEPEDFALYYCQVYGASSYTFGQGTKLERKRTVAAPSVFIFPPSDEQLKSGTASVVCLLNNFYPREAKVQWKVDNALQSGNSQESVTEQDSKDSTYSLSSTLTLSKADYEKHKVYACEVTHQGLSSPVTKSFNRGEC
# B3: IgG1-FAPα-FERL (antibody)
# heavy: EVQLLESGGGLVQPGGSPRLSCEASGFTFSSYALSWVRQAPGKGLEWVSAISGSGGGRYYADSVKGRFTISRDNSKNTLFLQMNSLRAEDTAVYYCAKEGYSSSGTYWDHWGQGTLVTVSSASTKGPSVFPLAPSSKSTSGGTAALGCLVKDYFPEPVTVSWNSGALTSGVHTFPAVLQSSGLYSLSSVVTVPSSSLGTQTYICNVNHKPSNTKVDKRVEPKSCDKTHTCPPCPAPEFERGPSVFLFPPKPKDTLMISRTPEVTCVVVDVSHEDPEVKFNWYVDGVEVHNAKTKPREEQYNSTYRVVSVLTVLHQDWLNGKEYKCKVSNKALPAPIEKTISKAKGQPREPQVYTLPPSREEMTKNQVSLTCLVKGFYPSDIAVEWESNGQPENNYKTTPPVLDSDGSFLLYSKLTVDKSRWQQGNVFSCSVMHEALHNHYTQKSLSLSPG
# light: AIQMTQSPSSVSASVGDRVTITCRASQGVSSWLAWYQQKPGRAPKLLIYVASTLQSGVPSRFSGSGSGTDFTLTINSLQPEDFATYYCQQANSFPPTFGQGTRLEMKRTVAAPSVFIFPPSDEQLKSGTASVVCLLNNFYPREAKVQWKVDNALQSGNSQESVTEQDSKDSTYSLSSTLTLSKADYEKHKVYACEVTHQGLSSPVTKSFNRGEC
# notes: Bivalent monoclonal IgG1 kappa
# B4: BisG1-b12-FERL/DR4-FERR (bispecific antibody, human IgG1, kappa, lambda)
# heavy 1: QVQLVQSGAEVKKPGASVKVSCQASGYRFSNFVIHWVRQAPGQRFEWMGWINPYNGNKEFSAKFQDRVTFTADTSANTAYMELRSLRSADTAVYYCARVGPYSWDDSPQDNYYMDVWGKGTTVIVSSASTKGPSVFPLAPSSKSTSGGTAALGCLVKDYFPEPVTVSWNSGALTSGVHTFPAVLQSSGLYSLSSVVTVPSSSLGTQTYICNVNHKPSNTKVDKRVEPKSCDKTHTCPPCPAPEFERGPSVFLFPPKPKDTLMISRTPEVTCVVVDVSHEDPEVKFNWYVDGVEVHNAKTKPREEQYNSTYRVVSVLTVLHQDWLNGKEYKCKVSNKALPAPIEKTISKAKGQPREPQVYTLPPSREEMTKNQVSLTCLVKGFYPSDIAVEWESNGQPENNYKTTPPVLDSDGSFLLYSKLTVDKSRWQQGNVFSCSVMHEALHNHYTQKSLSLSPG
# light 1: EIVLTQSPGTLSLSPGERATFSCRSSHSIRSRRVAWYQHKPGQAPRLVIHGVSNRASGISDRFSGSGSGTDFTLTITRVEPEDFALYYCQVYGASSYTFGQGTKLERKRTVAAPSVFIFPPSDEQLKSGTASVVCLLNNFYPREAKVQWKVDNALQSGNSQESVTEQDSKDSTYSLSSTLTLSKADYEKHKVYACEVTHQGLSSPVTKSFNRGEC
# heavy 2: QVQLQESGPGLVKPSGTLSLTCAVSGGSISSYSWWSWIRQPPGKGLEWIGELYHSGSTNYNPSLKSRVTISVDKSKNQFSLKLRSVTAADTAVYYCVRGVATIDYWGQGTLVTVSSASTKGPSVFPLAPSSKSTSGGTAALGCLVKDYFPEPVTVSWNSGALTSGVHTFPAVLQSSGLYSLSSVVTVPSSSLGTQTYICNVNHKPSNTKVDKRVEPKSCDKTHTCPPCPAPEFERGPSVFLFPPKPKDTLMISRTPEVTCVVVDVSHEDPEVKFNWYVDGVEVHNAKTKPREEQYNSTYRVVSVLTVLHQDWLNGKEYKCKVSNKALPAPIEKTISKAKGQPREPQVYTLPPSREEMTKNQVSLTCLVKGFYPSDIAVEWESNGQPENNYKTTPPVLDSDGSFFLYSRLTVDKSRWQQGNVFSCSVMHEALHNHYTQKSLSLSPG
# light 2: QSALTQPPSASGSPGQSVTISCTGTSSDVGGYNFVSWYQQDPGKAPKLLIYEVTKRPSGVPDRFSGSKSGNTASLTVSGLQAEDEADYYCSSYAGSNNVMFGGGTKLTVLGQPKAAPSVTLFPPSSEELQANKATLVCLISDFYPGAVTVAWKADSSPVKAGVETTTPSKQSNNKYAASSYLSLTPEQWKSHRSYSCQVTHEGSTVEKTVAPTECS
# notes: Fab-arm exchange of IgG1-b12-FERL and IgG1-DR4-FERR; also called bsIgG1-ctrl-FERLxDR4-FERR
# Columns and labels:
# [1] = biological target: T1, human DR4 (Death Receptor 4), cell …; assay: flow cytometry, HCT-116 cells, n = 1
# [2] = biological target: T1, human DR4 (Death Receptor 4), cell …; assay: flow cytometry, PANC-1 cells, n = 2
# [3] = biological target: T1, human DR4 (Death Receptor 4), cell …; assay: flow cytometry, DLD-1 cells, n = 2
# [4] = biological target: T1, human DR4 (Death Receptor 4), cell …; assay: flow cytometry, DLD-1 cells, n = 1
# [5] = biological target: T2, human FAPα (Fibroblast activation …); assay: flow cytometry, human lung fibroblasts, average ± SEM
# Protocol: (§1) Binding of bispecific or monoclonal antibodies carrying the anti-FAPα arm derived from IgG1-FAPα-FERL (BisG1-FAPα-FERL/DR4-FERR, BisG1-FAPα-FERL/b12-FERR, and IgG1-FAPα-FERL) to cell surface expressed human FAPα was analyzed by flow cytometry using human lung fibroblasts and CAFs, which endogenously express FAPα. BisG1-b12-FERL/b12-FERR was used as negative control.
# (§2) Human lung fibroblasts and CAFs (50,000 cells/well) were seeded in 96-Well round bottom plates (Greiner Bio-one, Cat #650101). Antibody dilutions were prepared using fluorescence-activated cell sorting (FACS) buffer, consisting of phosphate buffer saline (PBS, Lonza, Cat #BE17-517Q)+1% Bovine Serum Albumin (BSA, Roche, Cat #10735086001)+0.02% Sodium Azide (Bio-World, Cat #41920044-3). Plates were centrifuged, supernatant was removed, cells were resuspended in 50 μL of human Fc Block (BD, Cat #564220, diluted 1:100 in FACS buffer) and 50 μL of viability stain TO-PRO-3 Iodide (Thermo Fisher, Cat #T3605, diluted 1: 25,000 in FACS buffer), and incubated for 15 min at 4° C. Plates were washed three times with FACS buffer. Plates were centrifuged, supernatant was removed, cells were resuspended in 50 μL of antibody dilutions (concentration range 90-0.0005 μg/mL, three-fold dilution steps using FACS buffer) of BisG1-FAPα-FERL/DR4-FERR, BisG1-FAPα-FERL/b12-FERR, BisG1-b12-FERL/b12-FERR (top six concentrations only for CAFs culture) or IgG1-FAPα-FERL (top four concentrations only for CAFs culture) and incubated for 30 min at 4° C. Cells were washed three times with FACS buffer and resuspended in 50 μL of Fluorescein isothiocyanate (FITC)-labeled polyclonal antibody goat anti-mouse IgG1 (Jackson Immuno Research, Cat #109-096-097, diluted 1:100 in FACS buffer). […] Antibody binding to viable cells (TO-PRO-3 negative) was analyzed by flow cytometry on a FACSCelesta™ (BD biosciences) and data were processed using FlowJo_v10.8.1 (FlowJo LLC). Geomean fluorescence intensity, gMFI, was determined and visualized using GraphPad Prism.
# [6] = biological target: T2, human FAPα (Fibroblast activation …); assay: flow cytometry, human lung fibroblasts, n = 1
# Protocol: as §1, §2
Binder,EC50 [1],EC50 [2],EC50 [3],EC50 [4],EC50 [5],EC50 [6]
B1,0.22 µg/mL,0.4 µg/mL,0.22 µg/mL,0.33 µg/mL,–,–
B2,–,–,–,–,0.041 µg/mL,0.043 µg/mL
B3,–,–,–,–,0.015 µg/mL,0.016 µg/mL
B4,0.51 µg/mL,2.12 µg/mL,0.68 µg/mL,0.85 µg/mL,–,–
